From publication PMC4236683 (2014)

Legend:
PlexinA1 = PlexinA1 (Mus musculus, UniProt P70206); experiment: saturation binding
PlexinA2 = target: T1, PlexinA2 (Mus musculus, UniProt P70207); experiment: saturation binding
T1 chain: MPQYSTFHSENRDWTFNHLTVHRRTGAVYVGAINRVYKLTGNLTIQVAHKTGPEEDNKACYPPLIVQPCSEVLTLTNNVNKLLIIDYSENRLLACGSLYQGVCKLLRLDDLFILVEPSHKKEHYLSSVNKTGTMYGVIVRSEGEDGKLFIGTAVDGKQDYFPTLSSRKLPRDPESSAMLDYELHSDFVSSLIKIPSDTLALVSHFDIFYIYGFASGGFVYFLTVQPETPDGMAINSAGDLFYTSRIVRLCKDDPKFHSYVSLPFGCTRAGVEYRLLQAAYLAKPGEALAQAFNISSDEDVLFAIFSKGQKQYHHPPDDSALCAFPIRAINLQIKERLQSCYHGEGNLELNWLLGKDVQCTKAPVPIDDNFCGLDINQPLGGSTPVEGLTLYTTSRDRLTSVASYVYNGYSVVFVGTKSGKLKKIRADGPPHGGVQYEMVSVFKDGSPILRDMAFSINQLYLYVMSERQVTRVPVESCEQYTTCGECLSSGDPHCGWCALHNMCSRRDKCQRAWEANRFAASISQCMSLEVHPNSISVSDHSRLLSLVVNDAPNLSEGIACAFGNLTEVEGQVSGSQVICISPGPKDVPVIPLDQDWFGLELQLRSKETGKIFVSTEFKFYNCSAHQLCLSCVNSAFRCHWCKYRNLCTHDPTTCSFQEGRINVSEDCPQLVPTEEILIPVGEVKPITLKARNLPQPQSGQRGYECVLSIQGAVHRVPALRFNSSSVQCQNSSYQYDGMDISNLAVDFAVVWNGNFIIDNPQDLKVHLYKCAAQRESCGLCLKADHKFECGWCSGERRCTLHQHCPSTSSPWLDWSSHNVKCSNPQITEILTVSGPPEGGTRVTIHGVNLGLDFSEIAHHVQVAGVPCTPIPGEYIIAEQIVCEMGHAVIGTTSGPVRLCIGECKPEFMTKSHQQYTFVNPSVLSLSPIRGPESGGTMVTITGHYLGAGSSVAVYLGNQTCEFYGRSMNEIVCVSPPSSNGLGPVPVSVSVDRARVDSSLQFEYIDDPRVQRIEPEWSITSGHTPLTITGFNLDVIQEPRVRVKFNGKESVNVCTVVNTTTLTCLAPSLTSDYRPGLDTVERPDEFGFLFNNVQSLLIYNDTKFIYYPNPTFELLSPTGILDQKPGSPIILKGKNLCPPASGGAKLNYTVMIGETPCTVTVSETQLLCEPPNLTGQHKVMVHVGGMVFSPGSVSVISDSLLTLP

PlexinA1, sequence (P70206 28-1242): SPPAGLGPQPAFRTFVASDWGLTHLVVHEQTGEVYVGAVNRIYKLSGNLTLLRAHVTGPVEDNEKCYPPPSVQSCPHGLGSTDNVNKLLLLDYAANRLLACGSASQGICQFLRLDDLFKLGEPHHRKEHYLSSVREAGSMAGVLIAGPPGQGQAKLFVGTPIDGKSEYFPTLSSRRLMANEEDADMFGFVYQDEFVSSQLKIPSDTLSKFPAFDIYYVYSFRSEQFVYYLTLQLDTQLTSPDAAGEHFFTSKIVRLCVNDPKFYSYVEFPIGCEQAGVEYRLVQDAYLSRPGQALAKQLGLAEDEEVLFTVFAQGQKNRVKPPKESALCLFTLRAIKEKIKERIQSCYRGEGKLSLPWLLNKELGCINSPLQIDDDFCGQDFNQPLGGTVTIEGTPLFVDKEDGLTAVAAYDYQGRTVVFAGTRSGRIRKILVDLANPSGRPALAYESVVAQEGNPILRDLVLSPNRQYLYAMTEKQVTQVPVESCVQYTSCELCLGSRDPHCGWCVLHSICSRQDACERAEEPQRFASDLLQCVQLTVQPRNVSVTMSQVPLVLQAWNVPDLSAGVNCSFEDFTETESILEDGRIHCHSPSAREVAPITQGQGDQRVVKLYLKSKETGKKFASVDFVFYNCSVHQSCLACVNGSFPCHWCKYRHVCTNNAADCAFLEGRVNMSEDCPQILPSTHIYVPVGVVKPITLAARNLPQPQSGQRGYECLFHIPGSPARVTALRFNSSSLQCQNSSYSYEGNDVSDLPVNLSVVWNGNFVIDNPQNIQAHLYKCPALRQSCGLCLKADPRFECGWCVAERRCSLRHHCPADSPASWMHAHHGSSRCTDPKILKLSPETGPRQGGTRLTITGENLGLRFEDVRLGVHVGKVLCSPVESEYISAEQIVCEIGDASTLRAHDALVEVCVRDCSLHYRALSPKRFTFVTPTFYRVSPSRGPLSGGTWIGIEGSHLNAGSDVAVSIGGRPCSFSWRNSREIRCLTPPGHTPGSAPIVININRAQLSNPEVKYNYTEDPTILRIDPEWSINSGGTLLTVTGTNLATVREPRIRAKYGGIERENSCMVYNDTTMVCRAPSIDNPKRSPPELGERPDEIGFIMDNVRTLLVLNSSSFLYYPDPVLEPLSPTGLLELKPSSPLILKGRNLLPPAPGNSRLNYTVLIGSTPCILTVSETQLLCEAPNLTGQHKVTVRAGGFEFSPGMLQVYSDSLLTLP

Kd (PlexinA1): ~11.5 nM | Kd (PlexinA2): ~11.5 nM
B1: Sema5A-Fc (protein)
chain: PETQDPAKCQRAEHPVVSYKEIGPWLREFRAENAVDFSRLTFDPGQKELVVGARNYLFRLELEDLSLIQAVEWECDEATKKACYSKGKSKEECQNYIRVLLVGGDRLFTCGTNAFTPVCTIRSLSNLTEIHDQISGMARCPYSPQHNSTALLTASGELYAATAMDFPGRDPAIYRSLGTLPPLRTAQYNSKWLNEPNFVSSYDIGNFTYFFFRENAVEHDCGKTVFSRPARVCKNDIGGRFLLEDTWTTFMKARLNCSRPGEVPFYYNELQGTFFLPELDLIYGIFTTNVNSIASSAVCVFNLSAISQAFNGPFKYQENSRSAWLPYPNPNPNFQCGTMDQGLYVNLTERNLQDAQKFILMHEVVQPVTTVPSFMEDNSRFSHLAVDVVQGRETLVHIIYLGTDYGTIKKVRAPLSQSSGSCLLEEIELFPERRSEPIRSLQILHSQSVLFVGLQEHVAKIPLKRCHFHQTRSACIGAQDPYCGWDAVMKKCTSLEESLSMTQWDQSIPTCPTRNLTVDGSFGPWSPWTPCTHTDGTAVGSCLCRSRSCDRPAPQCGGWQCEGPRMEITNCSRNGGWTPWTSWSPCSTTCGIGFQVRQRSCSNPTPRHGGRVCVGQNREERYCNEHLLCPPHVFWTGWGPWERCTAQCGGGIQARRRTCENGPDCAGSNVEYHPCNTNACPELKKTTPWTPWTPVNISDNGGHYEQRFRYTCKARLPDPNLLEVGRQRIEMRYCSSDGTSGCSTDGLSGDFLRAGRYSAHTVNGAWSAWTSWSQCSRDCSRGIRNRKRVCNNPEPKFGGMPCLGPSLEFQECNILPCPVDGVWSCWSSWSKCSATCGGGHYMRTRSCSNPAPAYGGDICLGLHTEEALCNTQTCPESWSEWSDWSVCDASGTQVRARQCILLFPVGSQCSGNTTESRPCVFDSNFIPEVSVARSSSVEEKRCGEFNMFHM
